Data on 33 sequences can be found in the supplement of paper PMC7877785.

± gives the uncertainty stated by the source.

This data set in a line: self-splicing fitness, log relative to wild type (ln ratio); higher = more splicing; Tetrahymena group I intron in knt gene, E. coli kanamycin selection, DiMSum; sequences stand for … in CUCUCU…GGAGGGAAAAGUUAUCAGGCAUGCACCUGGUAGCUAGUCUUUAAACCAAUAGAUUGCAUCGGUUUAAAAGGCAAGACCGUCAAAUUGCGGGAAAGGGGUCAACAGCCGUUCAGUACCAAGUCUCAGGGGAAACUUUGAGAUGGCCUUGCAAAGGGUAUGGUAAUAAGCUGACGGACAUGGUCCUAACCACGCAGCCAAGUCCUAAGUCAACAGAUCUUCUGUUGAUAUGGAUGCAGUUCACAGACUAAAUGUCGGUCGGGGAAGAUGUAUUCUUCUCAUAAGAUAUAGUCGGACCUCUCCUUAAUGGGAGCUAGCGGAUGAAGUGAUGCAACACUGGAGCCGCUGGGAACUAAUUUGUAUGCGAAAGUAUAUUGAUUAGUUUUGGAGUACUCGUGGUCG
The essentials:
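Library with all eight P1ex-region intron nucleotides randomised, intron inside the knt kanamycin-resistance gene on pET-22b(+), in E. coli BL21(DE3). Cells grew overnight at 37°C or 30°C on LB agar with or without 25 μg/mL kanamycin (plus 100 μg/mL carbenicillin, 50 μM IPTG, 0.2% rhamnose), in six replicate transformations. Pooled colonies were amplicon-sequenced on Illumina HiSeq 2500. DiMSum fitness is the error-weighted combination of wild-type-normalised replicate fold changes, kanamycin versus none.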

Turning to ACCGAGCAAUAUUACGUUAG, the “self-splicing fitness (ln)” value reads like this: (30 °C) -4.03 ± 0.15; (37 °C) -2.65 ± 0.15.
The like results for UCUGAGCAAUAUUACGGACG were, in that order, -1.17 ± 0.35 and -2.21 ± 0.45.
The corresponding values for UUAAAGCAAUAUUACGCACA are 0.245 ± 0.098 and -0.401 ± 0.12.
The like results for CCCGAGCAAUAUUACGCUAG were, in that order, -3.59 ± 0.37 and -1.73 ± 0.36.
Take UACUAGCAAUAUUACGGUCG: the “self-splicing fitness (ln)” value reads like this: (30 °C) -0.0757 ± 0.12; (37 °C) 0.338 ± 0.16.
Take GGGAAGCAAUAUUACGCAGC: the “self-splicing fitness (ln)” value reads like this: (30 °C) -1.29 ± 0.14; (37 °C) -1.12 ± 0.19.
Regarding AGGUAGCAAUAUUACGCGAC, the “self-splicing fitness (ln)” value was -2.971 ± 0.029 (30 °C) and -1.8 ± 0.04 (37 °C).
In the case of GACGAGCAAUAUUACGCUAU, the “self-splicing fitness (ln)” value reads like this: (30 °C) -3.39 ± 0.2; (37 °C) -2.42 ± 0.25.
As for UGCGAGCAAUAUUACGAAUC, the “self-splicing fitness (ln)” value is -4.3 ± 0.43 (30 °C) and -2.41 ± 0.23 (37 °C).
With CUCUAGCAAUAUUACGUGCG, the “self-splicing fitness (ln)” value is, setting by setting: (30 °C) -2.61 ± 0.22; (37 °C) -3.7 ± 0.3.
For the sequence AGUUAGCAAUAUUACGGUUG, the “self-splicing fitness (ln)” value runs as follows: (30 °C) -3.09 ± 0.24; (37 °C) -1.99 ± 0.22.
The corresponding values for AAUAAGCAAUAUUACGUCGC are -2.48 ± 0.16 and -1.21 ± 0.14.
The corresponding values for UGAAAGCAAUAUUACGACUA are -0.403 ± 0.08 and 0.139 ± 0.11.
The like results for GUCAAGCAAUAUUACGUCCA were, in that order, -2.58 ± 0.25 and -0.387 ± 0.12.
As for UUCGAGCAAUAUUACGCCAA, the “self-splicing fitness (ln)” value (30 °C) is -2.89 ± 0.48 and the “self-splicing fitness (ln)” value (37 °C) was -2.07 ± 0.27.
Consider AGGUAGCAAUAUUACGUGAG, for which the “self-splicing fitness (ln)” value by setting is: (30 °C) -1.02 ± 0.011; (37 °C) -0.588 ± 0.032.
The like results for UAAGAGCAAUAUUACGGGGC were, in that order, -4 ± 0.42 and -2.83 ± 0.32.
The corresponding values for ACAUAGCAAUAUUACGGGGU are -3.67 ± 0.17 and -1.81 ± 0.14.
The like results for GCCUAGCAAUAUUACGGGAU were, in that order, -0.903 ± 0.11 and 0.0611 ± 0.13.
For UCGCAGCAAUAUUACGAACG, the “self-splicing fitness (ln)” value (30 °C) was -2.63 ± 0.39 and the “self-splicing fitness (ln)” value (37 °C) is -1.05 ± 0.3.
The like results for GCUUAGCAAUAUUACGUCCA were, in that order, -1.72 ± 0.14 and -0.697 ± 0.14.
CAGUAGCAAUAUUACGUAAG: the “self-splicing fitness (ln)” value runs as follows: (30 °C) 0.131 ± 0.069; (37 °C) -0.159 ± 0.086.
Regarding UGCGAGCAAUAUUACGUCAU, the “self-splicing fitness (ln)” value (30 °C) was -4.84 ± 0.46 and the “self-splicing fitness (ln)” value (37 °C) was -2.95 ± 0.23.
The like results for UCCGAGCAAUAUUACGACCU were, in that order, -3.35 ± 0.26 and -2.74 ± 0.36.
The corresponding values for ACCAAGCAAUAUUACGACAC are -1.29 ± 0.093 and -1.3 ± 0.13.
On to UGCCAGCAAUAUUACGAUCU, for which the “self-splicing fitness (ln)” value reads like this: (30 °C) -2.48 ± 0.1; (37 °C) -1.44 ± 0.1.
In the case of CCCCAGCAAUAUUACGGAAU, the “self-splicing fitness (ln)” value was -3.31 ± 0.13 (30 °C) and -2.4 ± 0.2 (37 °C).
For the sequence AGAUAGCAAUAUUACGGGAG, the “self-splicing fitness (ln)” value is -2.43 ± 0.26 (30 °C) and -1.95 ± 0.23 (37 °C).
On to UCAUAGCAAUAUUACGUGUG, for which the “self-splicing fitness (ln)” value reads like this: (30 °C) -1.8 ± 0.068; (37 °C) -1.84 ± 0.075.
The corresponding values for UUUCAGCAAUAUUACGGCAA are -0.476 ± 0.089 and -0.0559 ± 0.11.
The like results for UCAAAGCAAUAUUACGUCCA were, in that order, -1.19 ± 0.13 and -0.715 ± 0.13.
The corresponding values for GAGGAGCAAUAUUACGUACA are -3.14 ± 0.32 and -0.612 ± 0.2.
As for GGCGAGCAAUAUUACGGACU, the “self-splicing fitness (ln)” value is -0.419 ± 0.077 (30 °C) and -0.219 ± 0.13 (37 °C).
